From EP2878677A1, “Activators of protein phosphatase 5” (Deutsches Zentrum für Neurodegenerative Erkrankungen e.V. …, priority 2013, dated 2015) come the findings set out here.

For this experiment, the target named is YFP-Hsp90/DAF-21 (N-terminal YFP-tagged Hsp90) (C. elegans) (UniProt Q18688). Put plainly: sedimentation velocity AUC with fluorescence detection; 300 nM YFP-Hsp90, 3 uM PPH-5; YFP-Hsp90 alone 6.8 S.

For the substance “PPH-5 (C. elegans protein phosphatase 5) (enzyme)”, the sedimentation coefficient (s20,w) of YFP-Hsp90 in complex with PPH-5 stood at 8.9 S.
